Assay results from patent US20260000597A1 (priority 2018, published 2026).

target: AchR (Homo sapiens, UniProt P02708); experiment: ELISA of screened peptide phages on AchR versus streptavidin (OD450); format: binding; conditions: ELISA of selected 11-mer (L2) peptide phages on AchR, absorbance at 450 nm; Spep-2 positive control
Method: The output phages for the 4th and 5th rounds of biopanning in Example 13-1 were inoculated to E. coli, and plated on the agar plates so as to form 100-200 plaques per plate. The plaques were inoculated on 1 ml of an SB liquid medium containing 50 μg/ml of ampicillin by using a sterile tip, and cultured with shaking at 37° C. for 5 hours, followed by the addition of 30 μl of helper phages, and then cultured at 37° C. and 200 rpm for one day. The culture was centrifuged at 12,000 rpm for 2 minutes to collect supernatant, and 2% BSA was added to the supernatant, and used for phage screening.
In a 96-well ELISA plate, 5 μg/ml AchR or streptavidin was added at 50 μl per well, and left at 4° C. overnight. The next day, the solution in each well was discarded, followed by the addition of 2% BSA, and then blocked at room temperature for 2 hours. After the solution was all discarded, the wells were washed three times with Tris (20 mM, pH7). In addition, 100 μl of each of the phage solutions obtained from the above-prepared plaques was dispensed into wells and left at 30° C. for 1 hour. After the solution in the wells was all discarded, the wells were washed three times with Tris (20 mM, pH 7), and then the HRP-conjugated anti-M13 antibody diluted 1:2,000 was added at 100 μl per well, followed by culture at 30° C. for 1 hour. After the wells were washed three times with Tris (20 mM, pH7), 100 μl of tetramethylbenzidine was added to each well to induce a color development reaction, and then the reaction was stopped by the addition of 100 μl of 1M H2SO4, and the absorbance at 450 nm (OD450) was measured. The measured absorbance was converted into a ratio of AchR absorbance to streptavidin absorbance (AchR signal/streptavidin signal), and the results are shown in FIGS. 14 to 16.

AchR, sequence (P02708 21-457): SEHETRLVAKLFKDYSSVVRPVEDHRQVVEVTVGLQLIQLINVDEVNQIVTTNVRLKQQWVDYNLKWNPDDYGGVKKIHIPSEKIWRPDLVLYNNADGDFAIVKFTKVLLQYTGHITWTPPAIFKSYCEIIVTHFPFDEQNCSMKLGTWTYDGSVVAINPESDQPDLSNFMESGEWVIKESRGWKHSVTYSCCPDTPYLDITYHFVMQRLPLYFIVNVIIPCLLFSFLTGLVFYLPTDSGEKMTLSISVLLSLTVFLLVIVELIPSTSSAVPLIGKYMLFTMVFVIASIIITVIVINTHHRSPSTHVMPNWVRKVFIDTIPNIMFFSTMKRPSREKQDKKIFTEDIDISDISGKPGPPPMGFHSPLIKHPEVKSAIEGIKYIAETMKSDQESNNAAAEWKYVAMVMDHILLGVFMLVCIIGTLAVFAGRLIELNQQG

| Substance | OD |
| --- | --- |
| L2-56 (FICKSRKFYGK; AchR binding peptide) [Peptide L2-56] | 0.713 |
| L2-104 (PEDRQRKTWFK; AchR binding peptide) [Peptide L2-104] | 0.563 |
| L2-148 (DSNKVRKCSSK; AchR binding peptide) [Peptide L2-148] | 0.604 |
| L2-64 (SPFRAKRQDVR; AchR binding peptide) [Peptide L2-64] | 0.683 |
| L2-51 (SLYRQKRHDYK; AchR binding peptide) [Peptide L2-51] | 0.653 |
| L2-92 (FVGRWKREYAK; AchR binding peptide) [Peptide L2-92] | 0.634 |
| L2-192 (EHVKLKRLDFR; AchR binding peptide) [Peptide L2-192] | 0.685 |
| L2-160 (ADIRMKKWYPK; AchR binding peptide) [Peptide L2-160] | 0.721 |
| L2-48 (VSTKIKKEPQR; AchR binding peptide) [Peptide L2-48] | 0.629 |
| L2-38 (ESEKIKRLSTR; AchR binding peptide) [Peptide L2-38] | 0.88 |
| L2-13 (GGLKSKRLTTR; AchR binding peptide) [Peptide L2-13] | 0.855 |
| L2-28 (CIWKSKRSPAK; AchR binding peptide) [Peptide L2-28] | 0.762 |
| L2-156 (YGLRMRKWYMK; AchR binding peptide) [Peptide L2-156] | 0.683 |
| L2-15 (HTTRGKRCDPR; AchR binding peptide) [Peptide L2-15] | 0.705 |
| L2-115 (VRAKHRKSSLR; AchR binding peptide) [Peptide L2-115] | 0.837 |
| L2-164 (VPTKMKKYETK; AchR binding peptide) [Peptide L2-164] | 0.733 |
| L2-198 (DIYKGKRTLVK; AchR binding peptide) [Peptide L2-198] | 0.718 |

same assay, conditions: ELISA of selected 14-mer (L3) peptide phages on AchR, absorbance at 450 nm; Spep-2 positive control

| Substance | OD |
| --- | --- |
| L3-163 (PFTKMRKQFQRMSA; AchR binding peptide) [Peptide L3-163] | 0.78 |
| L3-182 (FYLRERRHQLKTEF; AchR binding peptide) [Peptide L3-182] | 0.818 |
| L3-8 (PICRWKRAPFKWYF; AchR binding peptide) [Peptide L3-8] | 0.777 |
| L3-156 (IVPRDRKQALRWTN; AchR binding peptide) [Peptide L3-156] | 0.799 |
| L3-188 (DGIRDKKCCWRDLI; AchR binding peptide) [Peptide L3-188] | 0.738 |
| L3-38 (TVVKSRKCSVRYNW; AchR binding peptide) [Peptide L3-38] | 0.669 |
| L3-24 (FVRKKRKSLLRDTR; AchR binding peptide) [Peptide L3-24] | 0.846 |
| L3-128 (IVNRAKRSQIRFDV; AchR binding peptide) [Peptide L3-128] | 0.523 |
| L3-59 (HVYKNRRVWGKGWP; AchR binding peptide) [Peptide L3-59] | 0.659 |
| L3-159 (QIAKLKRDQMKEAW; AchR binding peptide) [Peptide L3-159] | 0.786 |
| L3-75 (QIPKQKKQEQRAIS; AchR binding peptide) [Peptide L3-75] | 0.72 |
| L3-148 (MMARCRRIMCRSFN; AchR binding peptide) [Peptide L3-148] | 0.451 |
| L3-77 (VLIKQRKWQDRSCS; AchR binding peptide) [Peptide L3-77] | 0.688 |
| L3-79 (QQFKYRRECVKYGS; AchR binding peptide) [Peptide L3-79] | 0.701 |
| L3-34 (LGWKKRKSLLRRHV; AchR binding peptide) [Peptide L3-34] | 0.74 |
| L3-168 (MGLRARKYEDKTLH; AchR binding peptide) [Peptide L3-168] | 0.775 |
| L3-116 (YGSKQRRFEEKICG; AchR binding peptide) [Peptide L3-116] | 0.644 |
| L3-165 (YLVKLRRFWAKIDM; AchR binding peptide) [Peptide L3-165] | 0.771 |
| L3-137 (QVVRLRRGKNRGTV; AchR binding peptide) [Peptide L3-137] | 0.565 |
| L3-42 (ETNRTRKQCYKTTF; AchR binding peptide) [Peptide L3-42] | 0.71 |
| L3-114 (LQNRMRKIYWKTFD; AchR binding peptide) [Peptide L3-114] | 0.646 |
| L3-118 (YGIRDRRPMTKHTQ; AchR binding peptide) [Peptide L3-118] | 0.69 |
| L3-5 (NEDRGKRPHIRVLG; AchR binding peptide) [Peptide L3-5] | 0.82 |
| L3-172 (VTGKGRRVTFRCMN; AchR binding peptide) [Peptide L3-172] | 0.634 |
| L3-52 (GTFKWRKSGARQYL; AchR binding peptide) [Peptide L3-52] | 0.757 |
| L3-13 (YCTRIRREGMKGSE; AchR binding peptide) [Peptide L3-13] | 0.862 |
| L3-146 (AVWRNRKDNVKASE; AchR binding peptide) [Peptide L3-146] | 0.512 |

same assay, conditions: phage ELISA, absorbance at 450 nm, 5 μg/ml AchR; 4th and 5th round biopanning phages

| Substance | OD |
| --- | --- |
| RYKKVPAK [Peptide L1-118] | 0.471 |
| RGRKPIWK [Peptide L1-108] | 0.535 |
| KIKKYYWK [Peptide L1-129] | 0.421 |
| KPKKGGWK [Peptide L1-148] | 0.426 |
| KLKRAMLK [Peptide L1-169] | 0.636 |
| KYKREEYR [Peptide L1-161] | 0.474 |
| KVRRVFLK [Peptide L1-132] | 0.541 |
| KDKKMPQR [Peptide L1-185] | 0.55 |
| REKKQEVK [Peptide L1-150] | 0.457 |
| RHRRANFR [Peptide L1-147] | 0.415 |
| KPKRDQSR [Peptide L1-113] | 0.526 |
| RYKKQQYK [Peptide L1-167] | 0.581 |
| KVKKIYYR [Peptide L1-144] | 0.503 |
| KYKKQHTK [Peptide L1-41] | 0.613 |
| RVRRDGHR [Peptide L1-49] | 0.504 |
| GGGRKKRRQRR [Peptide L2-202, reference compound] | 0.314 |

| Substance | OD |
| --- | --- |
| RLRKSLGK [Peptide L1-95] | 0.535 |
| KAKRGHFK [Peptide L1-68] | 0.55 |
| KEKRLYAR [Peptide L1-149] | 0.34 |
| RFRRGVRR [Peptide L1-13] | 0.73 |
| KTRRVDLR [Peptide L1-38] | 0.514 |
| GGRKKRRQRRR [Peptide L2-203, reference compound] | 0.302 |
| RHKRWSGR [Peptide L1-153] | 0.625 |
| RFRRNFHK [Peptide L1-196] | 0.583 |
| RTKKAYVK [Peptide L1-200] | 0.621 |
| RWKRSEQR [Peptide L1-32] | 0.607 |
| GGGRKKRRQRRRGG [Peptide L3-201, reference compound] | 0.315 |
| GGGRRRRRRRR [Peptide L2-204, reference compound] | 0.311 |
| RSKKINNK [Peptide L1-71] | 0.618 |
| RARKLHNR [Peptide L1-103] | 0.55 |
| KCKKDNDK [Peptide L1-184] | 0.593 |
